From publication PMC9881579, “Reconfigurable asymmetric protein assemblies through implicit negative design” (Science (New York, N.Y.), 2022) come the findings set out here.

What all share (conditions): both partners purified
Assay [1] addresses T1, LHD101B (biotin on the Avi-tag where immobilised (Fig. S3D)).
T1 construct: de novo designed protomer; also called LHD101 protomer B; source: E. coli BL21 LEMO, purified (Ni-NTA, SEC)
Kind of assay: BLI; biotinylated protomer on streptavidin biosensors, designed partner in solution; 25 °C; 10 mM HEPES pH 7.4, 150 mM NaCl, 3 mM EDTA, 0.05% Surfactant P20, 1 mg/ml BSA; steady-state fit, 1:1 model.

For assay [2], the target named is T1, LHD101B. Kind of assay: BLI; biotinylated protomer on streptavidin biosensors, designed partner in solution; 25 °C; 10 mM HEPES pH 7.4, 150 mM NaCl, 3 mM EDTA, 0.05% Surfactant P20, 1 mg/ml BSA; global kinetic fit, 1:1 model.
The target in assay [3] is T2, LHD317B.
T2 construct: de novo designed protomer; BLI: one protomer of the pair was Avi-tagged, biotinylated and immobilised; source: E. coli BL21 LEMO, purified (Ni-NTA, SEC)
Kind of assay: BLI; biotinylated protomer on streptavidin biosensors, designed partner in solution; 25 °C; 10 mM HEPES pH 7.4, 150 mM NaCl, 3 mM EDTA, 0.05% Surfactant P20, 1 mg/ml BSA; steady-state fit, 1:1 model.

In assay [4] the target is T2, LHD317B. Kind of assay: BLI; biotinylated protomer on streptavidin biosensors, designed partner in solution; 25 °C; 10 mM HEPES pH 7.4, 150 mM NaCl, 3 mM EDTA, 0.05% Surfactant P20, 1 mg/ml BSA; global kinetic fit, 1:1 model.
Assay [5] addresses T3, LHD275B.
T3 construct: de novo designed protomer; BLI: one protomer of the pair was Avi-tagged, biotinylated and immobilised; source: E. coli BL21 LEMO, purified (Ni-NTA, SEC)
The assay is described as follows: BLI; biotinylated protomer on streptavidin biosensors, designed partner in solution; 25 °C; 10 mM HEPES pH 7.4, 150 mM NaCl, 3 mM EDTA, 0.05% Surfactant P20, 1 mg/ml BSA; steady-state fit, 1:1 model.

For assay [6], the target named is T3, LHD275B. The assay is described as follows: BLI; biotinylated protomer on streptavidin biosensors, designed partner in solution; 25 °C; 10 mM HEPES pH 7.4, 150 mM NaCl, 3 mM EDTA, 0.05% Surfactant P20, 1 mg/ml BSA; global kinetic fit, 1:1 model.
The target in assay [7] is T4, LHD289B.
T4 construct: de novo designed protomer; BLI: one protomer of the pair was Avi-tagged, biotinylated and immobilised; source: E. coli BL21 LEMO, purified (Ni-NTA, SEC)
The assay is described as follows: BLI; biotinylated protomer on streptavidin biosensors, designed partner in solution; 25 °C; 10 mM HEPES pH 7.4, 150 mM NaCl, 3 mM EDTA, 0.05% Surfactant P20, 1 mg/ml BSA; steady-state fit, 1:1 model.

Assay [8] addresses T4, LHD289B. The assay is described as follows: BLI; biotinylated protomer on streptavidin biosensors, designed partner in solution; 25 °C; 10 mM HEPES pH 7.4, 150 mM NaCl, 3 mM EDTA, 0.05% Surfactant P20, 1 mg/ml BSA; global kinetic fit, 1:1 model.
For assay [9], the target named is T5, LHD202A.
T5 construct: de novo designed protomer; BLI: one protomer of the pair was Avi-tagged, biotinylated and immobilised; also called LHD202 protomer A; source: E. coli BL21 LEMO, purified (Ni-NTA, SEC)
Kind of assay: BLI; biotinylated protomer on streptavidin biosensors, designed partner in solution; 25 °C; 10 mM HEPES pH 7.4, 150 mM NaCl, 3 mM EDTA, 0.05% Surfactant P20, 1 mg/ml BSA; steady-state fit, 1:1 model.

Assay [10] has as its target T5, LHD202A. The assay is described as follows: BLI; biotinylated protomer on streptavidin biosensors, designed partner in solution; 25 °C; 10 mM HEPES pH 7.4, 150 mM NaCl, 3 mM EDTA, 0.05% Surfactant P20, 1 mg/ml BSA; global kinetic fit, 1:1 model.
Assay [11] deals with T6, LHD284B.
T6 construct: de novo designed protomer; BLI: one protomer of the pair was Avi-tagged, biotinylated and immobilised; also called LHD284 protomer B; source: E. coli BL21 LEMO, purified (Ni-NTA, SEC)
The assay is described as follows: BLI; biotinylated protomer on streptavidin biosensors, designed partner in solution; 25 °C; 10 mM HEPES pH 7.4, 150 mM NaCl, 3 mM EDTA, 0.05% Surfactant P20, 1 mg/ml BSA; steady-state fit, 1:1 model.

The target of assay [12] is T6, LHD284B. Kind of assay: BLI; biotinylated protomer on streptavidin biosensors, designed partner in solution; 25 °C; 10 mM HEPES pH 7.4, 150 mM NaCl, 3 mM EDTA, 0.05% Surfactant P20, 1 mg/ml BSA; global kinetic fit, 1:1 model.
Assay [13] concerns the target T7, LHD278B.
T7 construct: de novo designed protomer; BLI: one protomer of the pair was Avi-tagged, biotinylated and immobilised; source: E. coli BL21 LEMO, purified (Ni-NTA, SEC)
Kind of assay: BLI; biotinylated protomer on streptavidin biosensors, designed partner in solution; 25 °C; 10 mM HEPES pH 7.4, 150 mM NaCl, 3 mM EDTA, 0.05% Surfactant P20, 1 mg/ml BSA; steady-state fit, 1:1 model.

Assay [14] has as its target T7, LHD278B. The assay is described as follows: BLI; biotinylated protomer on streptavidin biosensors, designed partner in solution; 25 °C; 10 mM HEPES pH 7.4, 150 mM NaCl, 3 mM EDTA, 0.05% Surfactant P20, 1 mg/ml BSA; global kinetic fit, 1:1 model.
Assay [15] has as its target T8, LHD298B.
T8 construct: de novo designed protomer; BLI: one protomer of the pair was Avi-tagged, biotinylated and immobilised; also called LHD298 protomer B; source: E. coli BL21 LEMO, purified (Ni-NTA, SEC)
Kind of assay: BLI; biotinylated protomer on streptavidin biosensors, designed partner in solution; 25 °C; 10 mM HEPES pH 7.4, 150 mM NaCl, 3 mM EDTA, 0.05% Surfactant P20, 1 mg/ml BSA; steady-state fit, 1:1 model.

Assay [16] deals with T8, LHD298B. The assay is described as follows: BLI; biotinylated protomer on streptavidin biosensors, designed partner in solution; 25 °C; 10 mM HEPES pH 7.4, 150 mM NaCl, 3 mM EDTA, 0.05% Surfactant P20, 1 mg/ml BSA; global kinetic fit, 1:1 model.

T5 sequence (main, as listed by the source): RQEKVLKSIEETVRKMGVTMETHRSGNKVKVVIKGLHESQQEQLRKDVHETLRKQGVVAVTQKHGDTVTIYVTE

B1: LHD101A (designed binder)
chain: GRQEKVLKSIEETVRKMGVTMETHRSGNEVKVVIKGLHIKQQRQLYRDVRETSKKQGVETEIEVEGDTVTIVVRE
modifications: biotin on the Avi-tag where immobilised (Fig. S3D, S24B)
Regarding B1, the equilibrium dissociation constant (Kd) in assay [1] was 9.5 ± 0.76 nM. For the same molecule, in assay [2], the dissociation constant (Kd) was determined as 1.9 ± 0.04 nM, the koff was 0.0043 s⁻¹ and the kon is 2.2e+06 M⁻¹ s⁻¹.

B2: LHD317A (designed binder)
chain: GRQEKVLKSIEETVRKMGVRMLTHRGGNAVIVVIEGLHPSQAEQLLRDVHRTAKKQGVTVHLVFTGDIVVIMVVVGASEEEQEEMHRLVREIAEALHEAKRKGANEEQLEQLLRELLERAEREG
Molecule B2 yielded a Kd in [3] of 56 ± 2.3 nM. In assay [4], this molecule gave a Kd of 34.7 ± 0.05 nM, a koff of 0.0051 s⁻¹ and a kon of 150000 M⁻¹ s⁻¹.

B3: LHD275A (designed binder)
chain: GRQEKVLKSIEETVRKMGVEMLTFRAGNAVIVVIRGLHPEQAKQLLRDVSQTAHKQGVTVTLTFHGDVVFILVLVGASEEEQKHMQERIQELARIIHEAKRRGVSEEQLREIAEKMAKEIQEWG
For the molecule B3, the Kd in assay [5] is 4.5 ± 0.22 nM. In [6], this molecule yielded a Kd of 2.9 ± 0.01 nM, a koff of 0.00041 s⁻¹ and a kon of 140000 M⁻¹ s⁻¹.

B4: LHD289A (designed binder)
chain: GRQEKVLKSIEETVRKMGVTMLTHRHGNVVFVVILGLHKQQALQLLRDVHRTAHKQGVTLSITFSGDIVVIAVTVGASEEEKKEVRKIVKEIAKQLRHAETEEEAKEIVQRVIEEWQEEG
In turn, B4 gave a Kd in assay [7] of 610 ± 120 nM. Also, in [8], binding was characterised by a dissociation constant (Kd) of 1080 ± 39 nM, the koff stood at 0.057 s⁻¹ and the kon was determined as 53000 M⁻¹ s⁻¹.

B5: LHD202B (designed binder)
chain: SVEFHIVNISEEQRQRIEEYVRRISKKEGTEVRFEKRDGELTIEVKNLHEKRLQEILEYIERVNK
For the molecule B5, binding in [9] was characterised by a dissociation constant (Kd) of 2400 ± 170 nM. In assay [10], this molecule had a Kd of 4800 ± 250 nM, a koff of 0.29 ± 0.05 s⁻¹ and a kon of 60000 M⁻¹ s⁻¹.

B6: LHD284A (designed binder)
chain: TDELLERLRQLFEELHERGTIIIVEVHINGERQTKYLILAPKEELKKHLERIREKIEREGSSEVEVKVTSGGTTWTFNEK
B6 returned a Kd in assay [11] of 97 ± 13 nM. In addition, in assay [12], binding was put at a Kd of 8.9 ± 0.13 nM, the koff was determined as 0.0012 s⁻¹ and the kon stood at 130000 M⁻¹ s⁻¹.

B7: LHD278A (designed binder)
chain: GRQEKVLKSIEETVRKMGVRMLTHRGGNAVIVVIEGLHPSQIKQLMQDVIKTAKKQGVTVTITVSGDIVVIMVVVGASDEEQEEARRLVQEIARALQEAKRKGANEEQLEQLLRELLERAEREG
Turning to B7, binding in assay [13] was characterised by a dissociation constant (Kd) of 3.4 ± 0.69 nM. For the same molecule, in assay [14], the Kd came out at 0.8 ± 0.003 nM, the koff came to 0.00022 s⁻¹ and the on-rate (kon) stood at 290000 M⁻¹ s⁻¹.

B8: LHD298A (designed binder)
chain: GRQEKVLKSIEETVRKMGVTMETHRSGNTVKVVIKGLHESQQEQLHKDVEETVQKEGVFVLVSHHGDTVTIQVYE
In turn, B8 returned a Kd in assay [15] of 16 ± 3 nM. In [16], this molecule showed a Kd of 3.5 ± 0.01 nM, an off-rate (koff) of 0.00022 s⁻¹ and a kon of 64000 M⁻¹ s⁻¹.
